Assay results published in article PMC5987543.

Molecular target: α-synuclein, P37840
Assay: SPR; Biacore X100; monomeric α-syn immobilised on a streptavidin-coated chip; S100A9 injected at increasing concentrations in a single cycle; HBS-P+ (10 mM HEPES, 150 mM NaCl, 0.001% P20), pH 7.4, 25 °C; steady-state fit Rc = C*Rmax/(Kd + C); apparent; three repeats
Conditions: remark: other sources report otherwise

Kd: 5 µM
B1: S100A9, P06702 1-114 (natural protein)
chain: MTCKMSQLERNIETIINTFHQYSVKLGHPDTLNQGEFKELVRKDLQNFLKKENKNEKVIEHIMEDLDTNADKQLSFEEFIMLMARLTWASHEKMHEGDEGPGHHHKPGLGEGTP
